Biological target: Varicella Zoster Virus (VZV) antigens (lysate of VZV-infected MRC-5 cells, VZV-infected MRC-5 cells, cell-free VZV; ELLEN strain) (Varicella Zoster Virus (ELLEN strain, ATCC VR-586))
Test: cell-based or functional assay

| Binder | VZV-neutralizing activity, IC50 (plaque reduction) |
| --- | --- |
| FLAGhis-tagged DDF-VZV2 human Fab expressed using pDLac-VZV2-FLAGhis (Fab) heavy: LESGGGLVQPGGSLRLSCEASGFTFSSYTMNWVRQAPGKGLEWVSWISSSGSDIYYAESVKGRFTISRDNAKNSLYLQMNSLRDEDTALYYCARDGIDSSSSWGGEPYFYTMDFWGQGTTVIVSSASTKGPSVFPLAPSSKSTSGGTAALGCLVKDYFPEPVTVSWNSGALTSGVHTFPAVLQSSGLYSLSSVVTVPSSSLGTQTYICNVNHKPSNTKVDKKVEPKSCDKTSDYKDDDDKHHHHHH light: not shown | 2 µg/mL |
| FLAGhis-tagged DDF-VZV1 human Fab expressed using pDLac-VZV1-FLAGhis (Fab) heavy: LESGPGLVKPSETLSLTCSVSGGSITTKDFSWAWIRQPPGKGLEWIGSIYYSGTTHYSPSLKSRVIMSVDTSDNKFSLSLTSVTAADTAVYYCARQLGRSPGIYSFWRDHRTSAFDFWGQGTLATVSAASTKGPSVFPLAPSSKSTSGGTAALGCLVKDYFPEPVTVSWNSGALTSGVHTFPAVLQSSGLYSLSSVVTVPSSSLGTQTYICNVNHKPSNTKVDKKVEPKSCDKTSDYKDDDDKHHHHHH light: ELTQSPSSLSASVGDRVTITCRATQSISSYLSWYQQKPGQAPKLLIYGASNLQSGVPSRFSGSGSGTDFTLTINSLQPEDFATYYCQQTLSTPFTFGPGTRVDFKRTVAAPSVFIFPPSDEQLKSGTASVVCLLNNFYPREAKVQWKVDNALQSGNSQESVTEQDSKDSTYSLSSTLTLSKADYEKHKVYACEVTHQGLSSPVTKSFNRGEC | 2 µg/mL |
